The results in this text go back to patent US20200405820A1 (GENERAL HOSPITAL, published 2020).

Test [1] deals with T1, parathyroid hormone receptor 1 (PTHR1) in human osteoblast-derived SaOS-2 cells (human, UniProt Q03431 27-593).
T1 sequence (looked up): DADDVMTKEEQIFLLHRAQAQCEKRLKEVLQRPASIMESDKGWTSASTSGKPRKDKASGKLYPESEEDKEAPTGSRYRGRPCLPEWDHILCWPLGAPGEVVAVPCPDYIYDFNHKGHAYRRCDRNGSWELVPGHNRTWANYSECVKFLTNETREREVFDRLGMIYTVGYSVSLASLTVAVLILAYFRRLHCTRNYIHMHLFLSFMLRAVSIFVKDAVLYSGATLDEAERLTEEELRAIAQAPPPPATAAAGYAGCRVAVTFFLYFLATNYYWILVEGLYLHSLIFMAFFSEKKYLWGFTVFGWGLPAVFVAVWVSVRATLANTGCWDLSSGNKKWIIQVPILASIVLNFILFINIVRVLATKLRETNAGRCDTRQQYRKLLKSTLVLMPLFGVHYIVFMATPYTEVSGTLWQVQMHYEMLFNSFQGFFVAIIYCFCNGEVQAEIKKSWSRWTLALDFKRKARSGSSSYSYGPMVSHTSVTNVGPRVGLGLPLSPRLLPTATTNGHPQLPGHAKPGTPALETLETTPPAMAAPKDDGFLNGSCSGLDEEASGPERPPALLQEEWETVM
Description: cell-based or functional assay.

The target in test [2] is T1, parathyroid hormone receptor 1 (PTHR1) …. The test can be described thus: cell-based or functional assay. The source holds these as a separate data set.

B1: Palm-PTH(1-34) (Ref. No. 2027) (peptide)
peptide: SVSEIQLMHNLGKHLNSMERVEWLRKKLQDVHNFEYEXEYE
modifications: (PEG)2 linker (-C(O)-CH2(OCH2CH2)2CH2CH2-NH-) between the C-terminal Phe of PTH(1-34) and the N-terminal Glu of the tag; palmitoyl on the side-chain nitrogen of the Lys of the tag EYEK(palm)EYE; C-terminal amide (-NH2)
On to B1, for which, in test [1], the “Max %, cAMP signaling in SaOS2/glosensor (SGS-72) cells” value was determined as 85% and the “pEC50, cAMP signaling potency in SaOS2/glosensor (SGS-72) cells” value is 9.81 log molar concentration (pEC50). In addition, the “EC50, stimulation of cAMP formation in SaOS-2 cells” value in test [2] is approximately 0.6 nM.
